Experimental findings from publication PMC4013091, “Stabilization and Augmentation of Circulating AIM in Mice by Synthesized IgM-Fc” (PLoS ONE, 2014) are described below.

Values joined by “and” are separate entries in the source; they are usually repeats but may differ in a detail not shown here. Identical values can stand only once.

One may read the stoichiometry N as the number of molecules, sites or subunits per partner or assembly. For orientation: koff means a measure of how fast the partners let go of each other. The kon is the rate constant with which the complex forms.

The target of experiment [1] is FL-hFc, human IgM-Fc with a FLAG tag on the N-terminus of the CH2 domain (human). Put plainly: non-reducing SDS-PAGE and western blot; culture supernatant of HEK293T cells co-transfected with FL-hFc and IgJ-Myc; blotted with anti-FLAG and anti-Myc antibodies. In general terms: In western blotting, separated proteins are transferred to a membrane and probed.
Experiment [2] shares this target. Put plainly: non-reducing SDS-PAGE and western blot; culture supernatant of HEK293T cells transfected with pCAGGS-FL-hFc only, without IgJ.
In experiment [3] the target is T1, human recombinant AIM (apoptosis inhibitor of macrophage) (human, UniProt O43866 20-347).
T1 construct: also called human rAIM; rAIM; source: purified recombinant
T1 sequence (looked up): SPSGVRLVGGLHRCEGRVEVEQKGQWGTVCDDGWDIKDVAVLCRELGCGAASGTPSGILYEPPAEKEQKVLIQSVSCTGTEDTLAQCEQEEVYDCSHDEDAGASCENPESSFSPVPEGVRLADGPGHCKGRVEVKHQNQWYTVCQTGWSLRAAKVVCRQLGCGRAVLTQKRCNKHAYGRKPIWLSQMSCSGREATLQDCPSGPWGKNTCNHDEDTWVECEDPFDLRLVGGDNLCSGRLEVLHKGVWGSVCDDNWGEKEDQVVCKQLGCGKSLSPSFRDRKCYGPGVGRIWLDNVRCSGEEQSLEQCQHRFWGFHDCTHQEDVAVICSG
Put plainly: SPR; Biacore 3000, 25°C; human rAIM covalently immobilised (2800 RU) on a CM5 chip; IgM-Fc monomer injected in 10 mM HEPES pH 7.4, 150 mM NaCl, 3 mM EDTA, 0.05% Tween-20 at 20 µL/min; 1:1 Langmuir model; apparent affinity. Particulars: both partners purified. Background: Surface plasmon resonance follows binding to a sensor surface in real time, without labels.

Experiment [4] concerns the target human IgM-Fc pentamer (FL-hFc) combined with IgJ-Myc (human) (UniProt P01591).
The target is the same in experiment [5]. Put plainly: sequential immunoaffinity co-purification; supernatant of co-cultured HEK 293T cells (hAIM-HA cells with FL-hFc and IgJ-Myc cells); anti-hAIM monoclonal antibody column, then anti-FLAG column; fractions blotted with anti-HA and anti-FLAG.
The target is the same in experiment [6]. This is another data set of the same source.

human IgM-Fc pentamer (FL-hFc) combined with IgJ-Myc (human), sequence (P01591 whole entry): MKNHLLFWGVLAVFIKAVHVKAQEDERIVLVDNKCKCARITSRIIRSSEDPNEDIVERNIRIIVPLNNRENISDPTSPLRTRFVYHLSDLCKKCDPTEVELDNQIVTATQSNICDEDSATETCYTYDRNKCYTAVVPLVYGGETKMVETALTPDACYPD

On to “FL-hFc, human IgM-Fc with a FLAG tag on the N-terminus of the CH2 domain (domain or fragment)”, for which the stoichiometry N is 5 in experiment [1]; 5 and 6 in experiment [2].

B1: monomeric human IgM-Fc (CH2-CH3-CH4) with a C-terminal Myc tag (domain or fragment)
chain: IAELPPKVSVFVPPRDGFFGNPRKSKLICQATGFSPRQIQVSWLREGKQVGSGVTTDQVQAEAKESGPTTYKVTSTLTIKESDWLGQSMFTCRVDHRGLTFQQNASSMCVPDQDTAIRVFAIPPSFASIFLTKSTKLTCLVTDLTTYDSVTISWTRQNGEAVKTHTNISESHPNATFSAVGEASICEDDWNSGERFTCTVTHTDLPSPLKQTISRPKGVALHRPDVYLLPPAREQLNLRESATITCLVTGFSPADVFVQWMQRGQPLSPEKYVTSAPMPEPQAPGRYFAHSILTVSEEEWNTGETYTCVVAHEALPNRVTERTVDKSTGKPTLYNVSLVMSDTAGTCY
modifications: Disulfide-linked dimer of the mu Fc chain (~100-110 kDa), N-glycosylated (HEK293T). C-terminal Myc tag, which blocks pentamer formation, omitted. Limits not printed: CH2 start by domain convention. …
Regarding B1, in experiment [3], the Kd was 0.153 µM, the koff was 0.00315 s⁻¹ and the kon came to 20500 M⁻¹ s⁻¹.

B2: HA-tagged human AIM (natural protein)
chain: T1 sequence (looked up)
Take B2: the half-life of hAIM in the blood of wild-type mice after i.v. injection of 100 µg hFc-AIM complex (less than 2 h for hAIM alone) in experiment [4] turned out to be 12 h. In addition, the mass of hAIM in 100 µg of the purified hFc-AIM complex in experiment [5] came to 20 µg.

B3: endogenous mouse AIM in serum (natural protein)
chain: ESPTKVQLVGGAHRCEGRVEVEHNGQWGTVCDDGWDRRDVAVVCRELNCGAVIQTPRGASYQPPASEQRVLIQGVDCNGTEDTLAQCELNYDVFDCSHEEDAGAQCENPDSDLLFIPEDVRLVDGPGHCQGRVEVLHQSQWSTVCKAGWNLQVSKVVCRQLGCGRALLTYGSCNKNTQGKGPIWMGKMSCSGQEANLRSCLLSRLENNCTHGEDTWMECEDPFELKLVGGDTPCSGRLEVLHKGSWGSVCDDNWGEKEDQVVCKQLGCGKSLHPSPKTRKIYGPGAGRIWLDDVNCSGKEQSLEFCRHRLWGYHDCTHKEDVEVICTDFDV
As for B3, the circulating mouse AIM level in Δsμ mice 24 h after i.v. injection of 1 mg FL-hFc, as percent of that in the wild-type mouse (immunoblot of serum) in experiment [6] was 35%.
